In patent publication US6716811B1, “Compounds having affinity for the granulocyte-colony stimulating factor receptor (G-CSFR) and associated uses” (Affymax, Inc., priority 2000, dated 2004):
Where a SMILES comes first, the peptide text is derived from it. Bridges are numbered along the chain shown (N, C = ends). Roman numbers before positions name the chains, in order.

Experiments:
G-CSFR [1] = biological target: T1, G-CSFR (Homo sapiens, UniProt Q99062); experiment: G-CSF radioligand binding assay (SPA beads, 125I labeled G-CSF); conditions: reduction by 50% of 125I labeled G-CSF bound to immobilized G-CSFR; overnight at 4° C.
T1 construct: incubation with soluble G-CSFR harvest; made in house
T1 sequence (Q99062 25-627): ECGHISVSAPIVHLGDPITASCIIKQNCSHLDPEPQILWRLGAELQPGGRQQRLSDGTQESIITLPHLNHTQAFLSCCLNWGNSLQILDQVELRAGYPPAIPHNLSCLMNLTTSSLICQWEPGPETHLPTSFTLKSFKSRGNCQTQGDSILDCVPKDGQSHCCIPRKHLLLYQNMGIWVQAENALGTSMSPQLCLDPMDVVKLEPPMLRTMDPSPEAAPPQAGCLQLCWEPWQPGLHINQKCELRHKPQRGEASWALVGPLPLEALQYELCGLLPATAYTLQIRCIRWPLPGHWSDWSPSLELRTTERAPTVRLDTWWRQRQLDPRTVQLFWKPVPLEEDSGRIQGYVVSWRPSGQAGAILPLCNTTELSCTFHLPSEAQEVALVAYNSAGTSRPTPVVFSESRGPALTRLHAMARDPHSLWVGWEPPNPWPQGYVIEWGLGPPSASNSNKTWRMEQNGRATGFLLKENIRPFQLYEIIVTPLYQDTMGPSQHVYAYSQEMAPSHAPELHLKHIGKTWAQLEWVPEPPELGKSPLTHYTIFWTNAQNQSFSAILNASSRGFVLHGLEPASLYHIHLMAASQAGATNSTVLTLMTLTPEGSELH
Description: Streptavidin-coated scintillation proximity assay (SPA) beads (Amersham) were mixed with biotinylated anti-receptor immobilizing antibody (Ab179) followed by incubation with soluble G-CSFR harvest. Receptor-coated SPA beads were washed twice in PBS/0.1% BSA and distributed to wells of a white polystyrene 96-well microtiter plate (Packard). Serial dilutions of peptide or peptide mimetic were mixed with a constant amount of ^125I labeled G-CSF (10^5 cpm; 1290 Ci/mmol) in PBS/0.1% BSA, added to wells containing receptor-coated SPA beads, and incubated overnight at 4° C. The binding of radiolabeled G-CSF to the receptor-coated SPA bead brings the isotope in close proximity to the scintillant, which allows the emitted radiation to stimulate the scintillant to emit light. […] The amount of ^125I labeled G-CSF that was bound at equilibrium was measured by counting the plate in a TopCount (Wallac) microtiter plate luminometer. […] One can determine the concentration at which the peptide or peptide mimetic will reduce by 50% (IC50) the amount of ^125I labeled G-CSF bound to immobilized G-CSFR.

G-CSFR [2] = biological target: T1, G-CSFR; experiment: Specific binding of peptides to G-CSFR; conditions: total minus non-specific binding; unlabeled ligand typically G-CSF variant CS17
Description: Specific binding is binding of a ligand to a specific receptor, as opposed to non-specific binding that is mediated by non-specific interactions. Specific binding may be measured by subtraction of the non-specific binding (measured in the presence of saturating concentrations of unlabeled ligand) from the total binding (measured in the absence of saturating amounts of ligand). Typically, the unlabeled ligand used was a variant of G-CSF in which the cysteine normally found at position 17 was converted to serine (CS17).

G-CSFR [3] = biological target: T2, G-CSFR (Homo sapiens, UniProt Q99062); experiment: G-CSF competition binding assay (125I labeled G-CSF, immobilized G-CSFR in microtiter wells); design: made in house; conditions: reduction of bound 125I labeled G-CSF; overnight at 4° C.
T2 sequence (Q99062 25-836): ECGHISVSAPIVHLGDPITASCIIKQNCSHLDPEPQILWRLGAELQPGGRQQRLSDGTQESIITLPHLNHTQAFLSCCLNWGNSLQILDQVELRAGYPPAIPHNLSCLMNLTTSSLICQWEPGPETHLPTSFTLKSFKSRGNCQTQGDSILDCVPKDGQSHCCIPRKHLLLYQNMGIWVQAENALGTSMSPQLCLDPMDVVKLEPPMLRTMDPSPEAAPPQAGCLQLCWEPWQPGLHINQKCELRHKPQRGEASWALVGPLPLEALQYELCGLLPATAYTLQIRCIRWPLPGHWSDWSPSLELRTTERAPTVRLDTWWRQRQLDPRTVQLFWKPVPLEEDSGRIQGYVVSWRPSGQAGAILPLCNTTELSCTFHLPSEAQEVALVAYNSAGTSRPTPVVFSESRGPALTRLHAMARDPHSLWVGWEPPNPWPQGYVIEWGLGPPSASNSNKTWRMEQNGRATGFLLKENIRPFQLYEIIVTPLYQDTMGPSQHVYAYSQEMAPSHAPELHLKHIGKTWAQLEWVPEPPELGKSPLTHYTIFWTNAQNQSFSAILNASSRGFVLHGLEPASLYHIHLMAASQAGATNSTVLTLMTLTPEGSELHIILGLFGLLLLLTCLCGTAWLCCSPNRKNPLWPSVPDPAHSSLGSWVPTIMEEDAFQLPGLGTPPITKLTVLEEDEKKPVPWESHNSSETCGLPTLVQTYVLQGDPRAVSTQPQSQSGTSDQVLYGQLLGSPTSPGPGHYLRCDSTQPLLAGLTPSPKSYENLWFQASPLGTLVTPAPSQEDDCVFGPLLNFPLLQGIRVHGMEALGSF
Description: Determination of competitive binding was also carried out for a number of peptides. Briefly stated, G-CSFR was purified using standard techniques. The receptor was then immobilized in microtiter plate wells that were coated with acid-treated antibody (A b179) specific for a site on G-CSFR not involved with G-CSF binding. Separately, ^125I was coupled to the natural ligand G-CSF using techniques well known in the art. Test peptides were added to receptor-coated wells and allowed to bind to immobilized receptor for approximately 30 minutes. ^125 labeled G-CSF was then introduced to the wells and incubated overnight at 4°C. Unbound ^125I labeled G-CSF was removed by washing the plate several times followed by measuring the amount of radioactivity that remained in each well using conventional techniques. […] Alternatively, if reduced amounts or no ^125I labeled G-CSF was detected, the peptide did compete.

Row | Compound | IC50 (G-CSFR [1]) [µM] | Specific Binding? (G-CSFR [2]) | Competitive Binding? (G-CSFR [3])
1 | CC(C)C[C@H](NC(=O)[C@H](CCCNC(=N)N)NC(=O)[C@H](CCC(=O)O)NC(=O)[C@H](C)NC(=O)[C@@H](NC(=O)[C@@H](N)CO)[C@@H](C)O)C(=O)N[C@@H](Cc1c[nH]c2ccccc12)C(=O)N[C@@H](Cc1ccccc1)C(=O)N[C@@H](CSSC[C@H](NC(=O)[C@H](Cc1ccccc1)NC(=O)[C@H](Cc1c[nH]c2ccccc12)NC(=O)[C@H](CC(C)C)NC(=O)[C@H](CCCNC(=N)N)NC(=O)[C@H](CCC(=O)O)NC(=O)[C@H](C)NC(=O)[C@@H](NC(=O)[C@@H](N)CO)[C@@H](C)O)C(=O)NCC(N)=O)C(=O)NCC(N)=O [Example 37] (I: H-STAERLWFCG-NH2 / II: H-STAERLWFCG-NH2; disulfide I:9-II:9) | 0.5 to 200 |  | 
2 | N=C(N)NCCC[C@H](NC(=O)[C@H](CCC(=O)O)NC(=O)[C@H](CO)NC(=O)[C@H](CC(N)=O)NC(=O)[C@H](CO)NC(=O)[C@@H](N)CCC(N)=O)C(=O)N[C@@H](CCC(=O)O)C(=O)N[C@@H](Cc1c[nH]c2ccccc12)C(=O)N[C@@H](Cc1ccccc1)C(=O)N[C@@H](CSSC[C@H](NC(=O)[C@H](Cc1ccccc1)NC(=O)[C@H](Cc1c[nH]c2ccccc12)NC(=O)[C@H](CCC(=O)O)NC(=O)[C@H](CCCNC(=N)N)NC(=O)[C@H](CCC(=O)O)NC(=O)[C@H](CO)NC(=O)[C@H](CC(N)=O)NC(=O)[C@H](CO)NC(=O)[C@@H](N)CCC(N)=O)C(N)=O)C(N)=O [Example 39] (I: H-QSNSEREWFC-NH2 / II: H-QSNSEREWFC-NH2; disulfide I:10-II:10) | > 200 |  | 
3 | N=C(N)NCCC[C@H](NC(=O)[C@H](CCC(=O)O)NC(=O)[C@H](CO)NC(=O)[C@H](CC(N)=O)NC(=O)[C@H](CO)NC(=O)[C@@H](N)CCC(N)=O)C(=O)N[C@@H](CCC(=O)O)C(=O)N[C@@H](Cc1c[nH]c2ccccc12)C(=O)N[C@@H](Cc1ccccc1)C(=O)N[C@@H](CSSC[C@H](NC(=O)[C@H](Cc1ccccc1)NC(=O)[C@H](Cc1c[nH]c2ccccc12)NC(=O)[C@H](CCC(=O)O)NC(=O)[C@H](CCCNC(=N)N)NC(=O)[C@H](CCC(=O)O)NC(=O)[C@H](CO)NC(=O)[C@H](CC(N)=O)NC(=O)[C@H](CO)NC(=O)[C@@H](N)CCC(N)=O)C(=O)NCC(N)=O)C(=O)NCC(N)=O [Example 41] (I: H-QSNSEREWFCG-NH2 / II: H-QSNSEREWFCG-NH2; disulfide I:10-II:10) | > 200 |  | 
4 | CC(C)[C@H](NC(=O)[C@H](Cc1c[nH]c2ccccc12)NC(=O)[C@@H](NC(=O)[C@H](Cc1c[nH]c2ccccc12)NC(=O)CNC(=O)[C@H](CO)NC(=O)[C@H](CC(N)=O)NC(=O)[C@H](CO)NC(=O)[C@H](CCC(N)=O)NC(=O)[C@@H](N)CCC(=O)O)C(C)C)C(=O)NCC(=O)NCC(=O)NCC(=O)NCC(=O)N[C@@H](CSSC[C@H](NC(=O)CNC(=O)CNC(=O)CNC(=O)CNC(=O)[C@@H](NC(=O)[C@H](Cc1c[nH]c2ccccc12)NC(=O)[C@@H](NC(=O)[C@H](Cc1c[nH]c2ccccc12)NC(=O)CNC(=O)[C@H](CO)NC(=O)[C@H](CC(N)=O)NC(=O)[C@H](CO)NC(=O)[C@H](CCC(N)=O)NC(=O)[C@@H](N)CCC(=O)O)C(C)C)C(C)C)C(N)=O)C(N)=O [Example 46] (I: H-EQSNSGWVWVGGGGC-NH2 / II: H-EQSNSGWVWVGGGGC-NH2; disulfide I:15-II:15) | 0.5 to 200 |  | 
5 | Ac-ESGWVW-NH2 [Example 42, Ac-ESGWVW-CONH2] | > 200 |  | 
6 | Ac-NSGWVW-NH2 [Example 43, Ac-NSGWVW-CONH2] | > 200 |  | 
7 | CACMLRVVHC [Example 14] |  | Yes | Yes
8 | CADEVMHFCC [Example 3] |  | Yes | Yes
9 | CAGEVMHMCC [Example 1] |  | Yes | Yes
10 | CDPWMFYDLC [Example 7] |  | Yes | No
11 | CDVWQLFDRC [Example 4] |  | Yes | Yes
12 | CETLCGACFC [Example 15] |  | No | No
13 | CFWSDWGQTC [Example 11] |  | No | No
14 | CHANPVWGEC [Example 9] |  | No | No
15 | CNREIEAMCC [Example 2] |  | Yes | Yes
16 | CPDWYQSYMC [Example 12] |  | Yes | Yes
17 | CPHWTSYYMC [Example 13] |  | Yes | Yes
18 | CQRAGYMLAC [Example 8] |  | No | No
19 | CSFVQLNSIC [Example 5] |  | Yes | Yes
20 | CVPWMFYDLC [Example 6] |  | Yes | No
21 | H-EQSNSGWVWV-NH2 [Example 35, NH2-EQSNSGWVWV-CONH2] | 0.5 to 200 |  | 
22 | H-EQSNSGWVWVGGGGC-NH2 [Example 45, NH2-EQSNSGWVWVGGGGC-CONH2] | 0.5 to 200 |  | 
23 | H-KSTGGLTAERDAEKRRWLLTHGGE-OH [Example 66] | > 200 |  | 
24 | H-QSNSEREWFC-NH2 [Example 38, NH2-QSNSEREWFC-CONH2] | > 200 |  | 
25 | H-QSNSEREWFCG-NH2 [Example 40, NH2-QSNSEREWFCG-CONH2] | > 200 |  | 
26 | H-STAERLWFCG-NH2 [Example 36, NH2-STAERLWFCG-CONH2] | > 200 |  | 
